Assay results: the nanobody polyreactivity screen of Harvey et al. (2022)

Assay: yeast display, Sf9 membrane polyspecificity reagent, FACS + sequencing; frameworks hold sequencing errors
Outline: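 Nanobodies came from a synthetic yeast display library in Saccharomyces cerevisiae BJ5465, induced with galactose for 36–48 hours and stained for 1 hour at 4 °C with 10% biotinylated, detergent-solubilized Sf9 membrane reagent. Cells were enriched on streptavidin microbeads and then FACS-sorted, with low and high (top ~1%) gates set on anti-HA fluorescence for expression and streptavidin fluorescence for reagent binding. Each polyreactivity label reflects the gate a clone came from. Genes were amplified by colony PCR, sequenced by MiSeq 2 × 250 and filtered by CDR length.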

Row | Sequence | polyreactivity (PSR sort gate)
1 | QVQLVESGGGLVQAGGSLRLSCAASGFTFGNSALGWYRLAAGKERELVAAISRSGGRTYYADSVKGSFTISRDNAKNTVYLQMNSLKPEVTAVYYCARLLLSPQYGYWGQGTQVTVSS | high polyreactivity
2 | QVQLVESGGGLVQAGGSLRLSCAASGFTFGNYAMYWVRQAPGKERELVAAINYSGGSTYYADSVKGRFTISRDNAKNTVYLQMNSLKPEDTAVYYCAADTYPASYDYWGQGTQVTVSS | high polyreactivity
3 | QVQLVESGGGLVQAGGSLRLSCAASGFTFGPYAMGWYRQAPGKERELVAAIRGSGSSTYYADSVKGRFTISRDNAKNTVYLQMNSLKPEDTAVYYCAAKRRYGTDGYWGQGTQVTVSS | high polyreactivity
4 | QVQLVESGGGLVQAGGSLRLSCAASGFTFGPYDMGWYRQAPGKERELVAAITDSSGSTHYADSVKGRFTISRDNAKNTVYLQMNSLKPEDTAVYYCAAVVYYTFDYWGQGTQVTVSS | low polyreactivity
5 | QVQLVESGGGLVQAGGSLRLSCAASGFTFGPYDMGWYRQAPGKERELVAVIIGGDSTNYADSVKGRFTISRDNAKYTVYLQMNSLKPEDTAVYYCAADYIDRVGWMDYWGQGTQVTVSS | low polyreactivity
6 | QVQLVESGGGLVQAGGSLRLSCAASGFTFGRNAMGWYRQAPGKERELVARITTGGSTNYADSVKGRFTISRDNAKNTVYLQMNSLKPEDTAVYYCAATYRSLALFWTYGYWGQGTQVTVSS | low polyreactivity
7 | QVQLVESGGGLVQAGGSLRLSCAASGFTFGRNTMGWYRQAPGKERELVAAITRRGGTTHYADSVKGRFTISRDNAKNTVYLQMNSLKPEDTAVYYCAADPFNSYYGRYDYWGQGTQVTVSS | high polyreactivity
8 | QVQLVESGGGLVQAGGSLRLSCAASGFTFGRYAMGWYRQAPGKERELVAAISRGGSTYYADSVKGRFTISRDNAKNTVYLQMNSLKPEDTAVYYCNKGDSKEYDVYYWGQGTQVTVSS | low polyreactivity
9 | QVQLVESGGGLVQAGGSLRLSCAASGFTFGRYAMGWYRQAPGKERELVAAISWTGGSTYYADSVKGRFTISRDNAKNTVYLQMNSLKPEDTAVYYCAAVGRSKRDGYWGQGTQVTVSS | high polyreactivity
10 | QVQLVESGGGLVQAGGSLRLSCAASGFTFGRYGMGWYRQAPGKDREFVAAITGRTGTTYYADSVKGRFTISRDNAKNTVYLQMNSLKPEDTAVYYCAARGQYRSSRYPYYHWGQGTQVTVSS | high polyreactivity
11 | QVQLVESGGGLVQAGGSLRLSCAASGFTFGRYVMGWYRQAPGKGRELVAAITSSGSRTYYADSVKGRFTISRDNAKNTVYLQMNSLKPEHTAVYYCAARVYWTPVYYWGQGTQVTVSS | high polyreactivity
12 | QVQLVESGGGLVQAGGSLRLSCAASGFTFGSNAMGWYRQAPGKEREFVAAITYSGGGTYADSVKGRFTISRDNAKNTVDLQMNSLKPEDTAVYYCATDAYRWHYWNFGFGYWGQGTQVTVSS | high polyreactivity
13 | QVQLVESGGGLVQAGGSLRLSCAASGFTFGSNAMGWYRQAPGKERELVATISRRGGRTYYADSVKGRFTISRDNAKNTVYLQMNSLKPEDTAVYYCAAYLRPGGNYYWGQGTQVTVSS | high polyreactivity
14 | QVQLVESGGGLVQAGGSLRLSCAASGFTFGSNTMGWYRQAPGKERELVAAITTSGDSTYYADSVKGRFTISRDTAKNTVYLQMNSLKPEDTAVYYCAAERRYGRYYRLVRLLGQGTQVTVSS | high polyreactivity
15 | QVQLVESGGGLVQAGGSLRLSCAASGFTFGSYAMGWYRQAPGKDRELVAAISSNGGNTYYADSVKGRFTISRDNAKNTVYLQMNSLKPEDTAVYYCARDRQSRSLLEYDFWGQGTQVTVSS | high polyreactivity
16 | QVQLVESGGGLVQAGGSLRLSCAASGFTFGSYAMGWYRQAPGKEREFVAAIRRSGSSTYYADSVKGRFTISRDNAKNTVYLQMNSLKPEDTAVYYCAADVYRRLRRYRYYYWGQGTQVTVSS | low polyreactivity
17 | QVQLVESGGGLVQAGGSLRLSCAASGFTFGSYAMGWYRQAPGKERELVAAITCSGGSTYYADSVKGRFTISRDNAKNTVYLQMNSLKPEDTAVYYCNADVAGGYGWKSYHGYDYWGQGTQVTVSS | high polyreactivity
18 | QVQLVESGGGLVQAGGSLRLSCAASGFTFGSYAMGWYRQAPGKERELVAAITYSGSRTYYADSVKGRFTISRDNAKNTVYLQMNSLKPEDTAVYYCAAVTHYGFDYWGQGTQVTVSS | high polyreactivity
19 | QVQLVESGGGLVQAGGSLRLSCAASGFTFGSYARGWYRQAPGKERELVAAISWGGGSTYYADSVKGRFTISRDNAKNTVYLQMNSLKPEDTAVYYCNADAISSFGYWGQGTQVTVSS | high polyreactivity
20 | QVQLVESGGGLVQAGGSLRLSCAASGFTFGSYVMGWYRQAPGKERELVADISIRGGSTYYADSVKGRFTISRDNAKNTVYLQMNSLKPEDTAVYYCNADPAFYYWEGIVGGADYDYWGQGTQVTVSS | low polyreactivity
21 | QVQLVESGGGLVQAGGSLRLSCAASGFTFGTNAMGWYRQAPGKERELVATISARGARTNYADSVKGRFTISRDNAKNTVYLQMNSLKPEDTAVYYCAADPGPHRYSYDYWGQGTQVTVSS | high polyreactivity
22 | QVQLVESGGGLVQAGGSLRLSCAASGFTFGTNAMGWYSQAPGKERELVAAISGRVGSTYYADSVKGRFTISRDNAKNTVYFLMNSLKPEDTAVYYCAADTWKTWSPYLYYTYDSWGQGTQVTVSS | low polyreactivity

Row | Sequence | polyreactivity (PSR sort gate)
23 | QVQLVESGGGLVQAGGSLRLSCAASGFTFGTYAMGWYRQAPGKERELVAAINGNGGSTYYADSVKGRFTISRDNAKNTVYLQMNSLKPEDTAVYYCAAARRSGSTRRDYWGQGTQVTVSS | high polyreactivity
24 | QVQLVESGGGLVQAGGSLRLSCAASGFTFGTYAMGWYRQAPGKERELVARITSGGRTNYADSVKGRFTISRDNAKNTVYLQMNSLKPEDTAVYYCNAVNGYYWGSRFDYWGQGTQVTVSS | high polyreactivity
25 | QVQLVESGGGLVQAGGSLRLSCAASGFTFGVNAMGWYRQAPGKERELVAAISRSGGSTYYADSVKGRFTISRDNAKNTVYLEMNSLKPEDTAVYYCNKAYHRRDSEFGYWGQGTQVTVSS | high polyreactivity
26 | QVQLVESGGGLVQAGGSLRLSCAASGFTFGVYAMGWYRQAPGKERELVAAISRSSGRTYYADSVKGRFTISRDNAKNTVYLQMNSLKPEDTAVYYCAARGYTLSYVDMYYWGQGTQVTVSS | high polyreactivity
27 | QVQLVESGGGLVQAGGSLRLSCAASGFTFGVYAMGWYRQAPGKERELVAAISSTGGSTYYADSVKGRFRISRDNAKNTVYLQMKSLKPEDTAVYYCAADPYPEYIRYLPGVVYWGQGTQVTVSS | low polyreactivity
28 | QVQLVESGGGLVQAGGSLRLSCAASGFTFGWYAMGWYRQAPGKERELVAAISWSGGSTYYADSVKGRFTISRDNAKKTVYLQMNSLKPEDTAVYYCAAYPAYGGDYWGQGTQVTVSS | high polyreactivity
29 | QVQLVESGGGLVQAGGSLRLSCAASGFTFGWYDMGWYRQAPGKERELVASISWSGSSTYYADSVKGRFTISRDNAKNTVYLQLNSLKPEDTAVYYCNDVSVDYVNWYWYDYWGQGTQVTVSS | high polyreactivity
30 | QVQLVESGGGLVQAGGSLRLSCAASGFTFGYNAMGWYRQAPGKERELVAVITQSGGRTYYADSVKGRFTISRDNAKNTVYLQMISLKPEDTAVYYCNKVPRVYGYVKGSDYWGQGTQVTVSS | high polyreactivity
31 | QVQLVESGGGLVQAGGSLRLSCAASGFTFGYYAMGWYRQAPGKERELVAAINWSGGRTYYADSVKGRFTISRDNAMNTVYLQMNRLKPEDTAVYYCAASSRTKRYYWGQGTQVTVSS | high polyreactivity
32 | QVQLVESGGGLVQAGGSLRLSCAASGFTFGYYAMGWYRQAPGKERELVAAISSSGGSTYYADSVKGRFTLSRDNAKNTVYLQMNSLKPEDTAVYYCAVVVFSRVYRYFTSDYWGQGTQVTVSS | high polyreactivity
33 | QVQLVESGGGLVQAGGSLRLSCAASGFTFGYYAMGWYRQAPGKERELVAGISRGGRTNYADSVKGRFTISRDNAKNTVYLQMNRLIPEDTAVFYCAARVVLSPGGYGYWGQGTQVTVSS | high polyreactivity
34 | QVQLVESGGGLVQAGGSLRLSCAASGFTFGYYAMGWYRQATGKERELVATITGSGVRTYYADSLKGRFTISRDNAKNSVYLQMNSLKPEDTAVYYCNKVFSIPWQGVRFDYWGQGTQVTVSS | high polyreactivity
35 | QVQLVESGGGLVQAGGSLRLSCAASGFTFGYYTMGWYRQAPGKERELVAAISSSGGRTYYADSVKGRFTISRDNAKNTVYLQMNSLKPEDTAVYYCAARARWAGLRYTRYYYWGQGTQVTVSS | high polyreactivity
36 | QVQLVESGGGLVQAGGSLRLSCAASGFTFHLYAMGWYRQAPRKERELVAAISQSGDSTYYADTVKGRFTISRDNAKNTFYLQMNSLKPEDTAVYYFNADNDCVVWTYPFDFDYWGQGTQVTVSS | low polyreactivity
37 | QVQLVESGGGLVQAGGSLRLSCAASGFTFHYNAMGWYRQAPGKEREFVAAISGSGDRTYYADSVKGRFTISRDNAKNTVYLQMNSLKPEDTAVYYCATSVRQNYFYSYDYWGQGTQVTVSS | high polyreactivity
38 | QVQLVESGGGLVQAGGSLRLSCAASGFTFHYYAMGWYRPAPGKERELVAAISRGGGNTYYADSVKGRFTISRDNAKNTVYLQMNSLKPEDTAVYYCAADSKYRFSHGLDYWGQGTQVTVSS | high polyreactivity
39 | QVQLVESGGGLVQAGGSLRLSCAASGFTFHYYAMGWYRQAPGKERELVAAISWSSGRTYYADSVKGRFTISRDNAKNTVYLQMNSLKPEDTAVYYCAASSYNRRDYWGQGTQVTVSS | high polyreactivity
40 | QVQLVESGGGLVQAGGSLRLSCAASGFTFIDYAMGWYRQAPGKERELVAAISKRGGSTYYADSVKGRFTISRDNAKNSVYLQMNSLKPEDTAVYYCNAKAYHQGYLTRDDYWGQGTQVTVSS | high polyreactivity
41 | QVQLVESGGGLVQAGGSLRLSCAASGFTFIKYAMGWYRQAPGKEREFDATISWNGGNTYYADSVKGRFTISRDKAKNTVYLQMNSLKPEDTAVYYCAARVKYRTRGGTVVSYDYWGQGTQVTVSS | high polyreactivity
42 | QVQLVESGGGLVQAGGSLRLSCAASGFTFILYAMGWYRQAPGKERELVAAITTSGGRTYYADSVKGRFTISRDTAKNTVYLQMNSLKPEDTAVYYCNARTTPKERDYWGQGTQVTVSS | high polyreactivity
43 | QVQLVESGGGLVQAGGSLRLSCAASGFTFIPNAMGWYRQATGKERELVAAISTGGSTYYADSVKGRFTISRDNAKNTVSLQMNSLKPEDTAVYYCAAGILDLKLYFSSYDYWGQGTQVTVSS | low polyreactivity
